{"source": "paper doi:10.1101/722512", "about": "(bioRxiv, 2019)", "proteins": {"B1": {"name": "Erwinia ligand-gated ion channel (ELIC), wild type (natural protein)", "chain": "APADNAADARPVDVSVSIFINKIYGVNTLEQTYKVDGYIVAQWTGKPRKTPGDKPLIVENTQIERWINNGLWVPALEFINVVGSPDTGNKRLMLFPDGRVIYNARFLGSFSNDMDFRLFPFDRQQFVLELEPFSYNNQQLRFSDIQVYTENIDNEEIDEWWIRKASTHISDIRYDHLSSVQPNQNEFSRITVRIDAVRNPSYYLWSFILPLGLIIAASWSVFWLESFSERLQTSFTLMLTVVAYAFYTSNILPRLPYTTVIDQMIIAGYGSIFAAILLIIFAHHRQAMGVEDDLLIQRCRLAFPLGFLAIGCVLVIRGITL"}}, "molecular_target": "the molecule itself", "test": "native MS", "data": [{"protein": "B1", "values": [{"measurement": "stoichiometry N", "value": 5}]}]}
